Experiments:
[1] = target: XC-chemokine receptor 1 (XCR1) on mouse dermal dendritic cells (mouse) (UniProt Q9R0M1); assay: cell-based or functional assay
[2] = target: XC-chemokine receptor 1 (XCR1) on mouse dermal dendritic cells (mouse) (UniProt Q9R0M1); assay: flow cytometry of ear skin cells 24 h after laser-assisted delivery of the vaccibody in vivo; staining depended on XCR1 expression (Xcr1-/- mice)

UniProt Q9R0M1, sequence (Q9R0M1 whole entry): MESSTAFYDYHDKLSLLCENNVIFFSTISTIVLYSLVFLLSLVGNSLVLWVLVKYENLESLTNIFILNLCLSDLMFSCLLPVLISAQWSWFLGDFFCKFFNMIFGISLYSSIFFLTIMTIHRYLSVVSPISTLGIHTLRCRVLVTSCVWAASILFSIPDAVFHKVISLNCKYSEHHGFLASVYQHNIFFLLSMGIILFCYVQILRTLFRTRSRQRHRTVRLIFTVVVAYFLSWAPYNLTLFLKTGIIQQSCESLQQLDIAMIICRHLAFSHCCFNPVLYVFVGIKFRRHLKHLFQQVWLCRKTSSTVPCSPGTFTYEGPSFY

Substance | OT-I CD8+ T cell proliferation in ear-draining lymph nodes (CTV dilution), against free OVA on a per molecule basis [1] [times] | OT-II CD4+ T cell proliferation in ear-draining lymph nodes (CTV dilution), against free OVA on a per molecule basis [1] [times] | percent of XCR1+ dermal DCs stained [2] [%]
XCL1-OVA vaccibodies (from UniProt P47993 22-114; P01860 99-377; P01012 2-386) | 15 | 3 | –
XCL1-mCherry vaccibodies (from UniProt P47993 22-114; P01860 99-377) | – | – | 15

From patent US20180140690A1
